B1: unnamed (protein)
chain: MVGYLEAVANYFPDTKWANYTTGYDGGTGGQTGFYNVMLQNSPLGALSWWNASCEFHDVMVEQAADTAARVPSNYRYYIGAGSAHTMYGSDKVYSDQSGGESQTILDWVNDMLAFDPAAADPGAPSWQSVECDDCEIVLPGDPLPRSLPTAPFALDIAGNPVIRCPPFPRGPDPTPAALEADLGPFPVRSYRPFFTPGFGAGTIWYPANPNPGPFAVIAVSPGFRAPESTMAWVGPRLASNGFIVITISTQSPFDNPTSRAKQLMAALRLVAAEGRRPSPIIGRVDGDRTGLIGHSMGGGGSLIAARDNPSVDAIIPLAPWNSPAKDFSAVEAASLIVACERDEIARVSQHAKPFYDSIPAADVNKAFLEFRGADHLCVMVGNDHYATLGKYIVAWMKAFLDSDTRYDEYLCG
B2: unnamed (protein)
chain: MFNQIGKKSALSLMAAGSLMFSATALAIGGGGSGGGNNGGGGGCEADCGYERGPDPSVSLLEASTGPFSVRTSNVSSSVRGFGGGTIHYPTNTTGTMAAIVVIPGFVSPESSIAWWGPKLASHGFVVMTIGTNSGFDQPASRASQLNNALDYLIEQNGSSRSPINGMIDTDRLGVMGWSMGGGGTLRVATEGRVSAAIPLAPWDSSSSQFRSIDTPTLIFACENDSTAPVRSHADPFYDAIPDSTAKAFVELDGGGHTCANGSSGFGGSYNDVLSRLGVSWMKLHLDKDQRYNQFVCGPNHESDRSISEYRGTCPY
B3: unnamed (protein)
chain: MERTVVETRYGRLRGEMNEGVFVWKGIPYAKAPVGERRFLPPEPPDAWDGVREATSFGPVVMQPSDPIFSGLLGRMSEAPSEDGLYLNIWSPAADGKKRPVLFWIHGGAFLFGSGSSPWYDGTAFAKHGDVVVVTINYRMNVFGFLHLGDSFGEAYAQAGNLGILDQVAALRWVKENIAAFGGDPDNITIFGESAGAASVGVLLSLPEASGLFRRAMLQSGSGSLLLRSPETAMAMTERILDKAGIRPGDRERLLSIPAEELLRAALSLGPGVMYGPVVDGRVLRRHPIEALRYGAASGIPILIGVTKDEYNLFTLTDPSWTKLGEKELLDRINREVGPVPEEAIRYYKETAEPSAPTWQTWLRIMTYRVFVEGMLRTADAQAAQGADVYMYRFDYETPVFGGQLKACHALELPFVFHNLHQPGVANFVGNRPEREAIANEMHYAWLSFARTGDPNGAHLPEAWPAYTNERKAAFVFSAASHVEDDPFGRERAAWQGR
B4: unnamed (protein)
chain: MFIMIKKSELAKAIIVTGALVFSIPTLAEVTLSETTVSSIKSEATVSSTKKALPATPSDCIADSKITAVALSDTRDNGPFSIRTKRISRQSAKGFGGGTIHYPTNASGCGLLGAIAVVPGYVSYENSIKWWGPRLASWGFVVITINTNSIYDDPDSRAAQLNAALDNMIADDTVGSMIDPKRLGAIGWSMGGGGALKLATERSTVRAIMPLAPYHDKSYGEVKTPTLVIACEDDRIAETKKYANAFYKNAIGPKMKVEVNNGSHFCPSYRFNEILLSKPGIAWMQRYINNDTRFDKFLCANENYSKSPRISAYDYKDCP
B5: unnamed (protein)
chain: MKNAPIRSVLATCLVAAAASALAQTTAPTSASLNASAGPLSVSTASVTAPRGFGGGTIYYPTTQARYGVIAISPGFTATQISIAWLGRRIATHGFVVITLNTLTTLDQPDSRANQLMAALNHVINSSSSAVKARIDTSRLAVAGHSMGGGGALIAARDNPTLKASYPLTPWNINSAFTTVRVPTMIVGADGDTIAPVGTHARPFYAALPGATSKAYGELNGATHFSPNSTNTPIGRYGVAWMKRFLDGDTRYSTFLCGTEHTRYATALVFDRYNQNCPY
B6: unnamed (protein)
chain: MDKTRLFSTLSMVTSALLFSISVSAGKPSKGGDEPAPEPAACISDTDITSAALSSTGSSGPFTVSTKDVSRWSASGFGGGTIHYPTGAGDCGPIGGIAVVPGYVSYEASIKWWGPRLASWGFVVITINTNSIYDQPDSRATQLSAALDHIINDSTVGSMVDSSRLGAIGWSMGGGGALKLATDRSEVKAIIPQAPWYSGRYGRMKTPAFMIGCENDFVAPTSNHVDVFYANASGPKMKIEVNNGDHSCANSGYNETLLGKPGIAWMQRYIHGDTRFNQFLCGNENYGSSNSVSAYDFESC
B7: unnamed (protein)
chain: MNNNKMPKSALSLLVAGALFLSATAMAANPVPPPTNPGNPDSGYQRGPNPSVSMLEARNGPFSVRTTNVSSFTSGFGGGTIHYPTNTTGTMAAIVVIPGFVSAESSIEWWGPKLASHGFVVMTIDTNSGFDQPPSRARQINAALDYLIDQNNARGSAVSGMIDPNRLGVVGWSMGGGGSLRVAAEGRLDAVIPLAPWDTTNFRSVNTPALIFACESDTIAPVRSHASPFYNQIPASTPKAFVEISRGSHYCANGGGSNDAVLSRLGVSWMKVHLDKDQRYQQFICGPRHESDRSISEYRGN
B8: unnamed (protein)
chain: MLALRTSFPRVLTRLLAASLATGLVAQAQAAGHERGPAPTAASLEAEAGPFQVASTVLGAPVGYKGGTVFYPKGPGPFALVAFAPGFIETQSWNAWWAKYLASHGFVVVNIDTKSTLAFPPARQREQLAALKDVIQRSHTRGTPFYGLVDATRLGAMGHSMGGGATLELARDTPHIKAIVPMAPFQTTGTDYSRLTVPTLILTCKGDIVASAKSHAAPIYDSLPSSLDKAHVELAGGGGHPCTTSLGTSAEVKKVAAKYGVSWLKRFLDEDTRYSPFLCGAEHEASLKTSVVSAYQGNCP
B9: unnamed (protein)
chain: MKTSNSRRRRLAVAAGALLLAAAAHAQTNPYQKGPDPTSASLEATAGPFAVSTTSVSSSASGFGGGTIYYPTTAGSYGAIAISPGFTATQSSIAWLGRRLASHGFVVITIDTNSTLDQPASRATQLMAALNYVVNSSSSTVRSRVDANRLGVAGHSMGGGGTLIAARDNPTLKAAVPLTPWNTTKNFSSVTVPTLIIGAENDTVAPVSSHAIPFYNSLPSSTDKAYAELNGASHFAPNSSNTPIGKYSVAWMKRFVDNDTRYSPFLCGAPHTAYATSSAVSDYRSTCPY
B10: unnamed (protein)
chain: MKFNLSEKWLIALLASSLSFNALAVGGGGDDDDPPSCETDCGYERGPDPTASSLEADDGPYNVSTINVSSFVSGFGGGTIHYPRGTSGTMGAIAVVPGFVSSESDIIWWGSRIASHGFVVITIDTNSGFDQPDSRANQLSAALDYVIDESDSSSSAISGMVDSSRLGVMGWSMGGGGSLKLATDRNLMAIIPQAPYYSGFNDFDEITTPTLIIACENDAVAPVSSHASSFYYDIPSSTDKAFLEINNGSHYCGNTGNANEDILGKYGVAWMKRFIDLDQRYDQFLCGPNHDAPYAISEYRDTCN
B11: unnamed (protein)
chain: MKIVPPKPFFFEAGERAVLLLHGFTGNSADVRMLGRFLESKGYTCHAPIYKGHGVPPEELVHTGPDDWWQDVMNGYEFLKNKGYEKIAVAGLSLGGVFSLKLGYTVPIEGIVTMCAPMYIKSEETMYEGVLEYAREYKKREGKSEEQIEQEMEKFKQTPMKTLKALQELIADVRDHLDLIYAPTFVVQARHDEMINPDSANIIYNEIESPVKQIKWYEQSGHVITLDQEKDQLHEDIYAFLESLDW
B12: unnamed (protein)
chain: MANPYERGPNPTDALLEASSGPFSVSEENVSRLSASGFGGGTIYYPRENNTYGAVAISPGYTGTEASIAWLGERIASHGFVVITIDTITTLDQPDSRAEQLNAALNHMINRASSTVRSRIDSSRLAVMGHSMGGGGTLRLASQRPDLKAAIPLTPWHLNKNWSSVTVPTLIIGADLDTIAPVATHAKPFYNSLPSSISKAYLELDGATHFAPNIPNKIIGKYSVAWLKRFVDNDTRYTQFLCPGPRDGLFGEVEEYRSTCPF
B13: unnamed (protein)
chain: MTVCKLRMFTAQKHPVTNKIFGGSSMSSRKQDLRLRQLLYCLLLSTALGGAVVHAQTAPATIAQEAFNNGFGIFTAAGSATANGQAVLAGTFGGTDGSITSSPISTQGFSNITVSFDRTTVGLDNGEAGVAEFSVAGGAFTAIESAQTASGRMSFALAASAANQAQLRLRFRVVASRANETYSVDNVLVQGVAAGAQPPPPDPQPTNNPFQRGPTPSAATLEAAQGPFAVATTTVPNPSGFGAGTIYFPTSTTEGPFAAVSIAPGFSERQANVNWWGPRLASNGFVVVVIDTNSTSDAPASRATQLVAALRQVVTLSGTSGSPVFNKVDGNRLGVMGHSLGGGGTLIAAQNNPTLKAAIPFAPFNNDTNFSSVVVPTLIIACENDNVAPVADHASPFYNSFAASLDKAFLEIAGGSHSCANSGNNNMPILGKYGVSWMKLFMDNDTRYSPFLCGAPHQADLSGTQISEYRESCP
B14: unnamed (protein)
chain: MNFPRASRLMQAAVLGGLMAVSAAATAQTNPYARGPNPTAASLEASAGPFTVRSFTVSRPSGYGAGTVYYPTNAGGTVGAIAIVPGYTARQSSIKWWGPRLASHGFVVITIDTNSTLDQPSSRSSQQMAALRQVASLNGTSSSPIYGKVDTARMGVMGWSMGGGGSLISAANNPSLKAAAPQAPWDSSTNFSSVTVPTLIFACENDSIAPVNSSALPIYDSMSRNAKQFLEINGGSHSCANSGNSNQALIGKKGVAWMKRFMDNDTRYSTFACENPNSTRVSDFRTANCS

Key:
BHET = conditions: 120 h
p-NP-C6 = conditions: pH 8.5, 60 °C

Protein | plate clearing (BHET) | plate clearing (BHET; part of the chain shown) | also measured
B1 | not clears the plate | – | –
B2 | not clears the plate | – | –
B3 | – | – | Km (p-NP-C6): 0.5 µM; kcat (p-NP-C6): 39.8 s⁻¹; kcat/Km (p-NP-C6): 7.95e+07 M⁻¹ s⁻¹
B4 | not clears the plate | – | –
B5 | not clears the plate | – | –
B6 | – | not clears the plate | –
B7 | – | not clears the plate | –
B8 | – | not clears the plate | –
B9 | not clears the plate | – | –
B10 | – | not clears the plate | –
B11 | – | – | Km (p-NP-C6; part of the chain shown): 2.16 µM; kcat (p-NP-C6; part of the chain shown): 38 s⁻¹; kcat/Km (p-NP-C6; part of the chain shown): 1.76e+07 M⁻¹ s⁻¹
B12 | – | clears the plate (z > 3 vs empty vector) | –
B13 | – | clears the plate (z > 3 vs empty vector) | –
B14 | – | clears the plate (z > 3 vs empty vector) | –

Source: the PETadex activity labels
